# Measurements reported in PMC9307851.
# Target: DNMT3B MTase domain WT (human, UniProt Q9UBC3 569-853)
# Assay: ITC; 5 C; ITC: 20 mM Tris-HCl pH 7.2, 200 mM NaCl, 5% glycerol, 2 mM b-mercaptoethanol, 5 C; EMSA: 50 mM Tris-HCl pH 8.0, 25% glycerol, 8% glucose, 2 mM DTT, 0.1 mg/mL BSA, 30 min, gel in 0.5x TBE at 4 C
# Conditions: protein: recombinant; tags: His6-MBP removed by TEV; (only upper strand given)
binder,measurement,value
24-mer DNA duplex (GAC)8 (dsDNA) DNA 1: GACGACGACGACGACGACGACGAC DNA 2: GTCGTCGTCGTCGTCGTCGTCGTC,Kd,4 ± 0.1 µM
